How the values were obtained:
human Hsp90α [1] = target: T1, human Hsp90α (human, UniProt P07900 1-732); assay: native gel or EMSA; 7.5% Native-PAGE, no detergents, reducing or denaturing agents in the gel buffers; mixtures incubated at 30°C for 60 minutes; with and without 5mM ATP, 20mM Na2MoO4; with and without 0.01% dodecyl-maltopyranoside; details: both partners purified
T1 construct: Hsp90α, human, expressed from pET28b-Hsp90α; Dimer by Sephacryl S-200 SEC; also called Hsp90 dimer; source: E. coli BL21 (DE3), purified (Ni2+ HisTrap, Q-Sepharose, Sephacryl S-200)

[2] = target: the molecule itself; assay: SEC; HiPrep Sephacryl S-200; each protein alone; 50mM Hepes, 150mM NaCl, 50mM KCl, 10mM MgCl2, 1mM DTT, pH 7.5; molecular weight interpolated from standards
human Hsp90α [3] = target: T1, human Hsp90α; assay: co-IP; Hsp90α bait held on monoclonal Hsp90 (H90-10) antibody/Protein A-Sepharose beads; p23, FKBP52 and HOP added in the 2:1:2:2 molar ratios; 30°C, 60 minutes; without ATP, with 5mM ATP, 20mM Na2MoO4, and with ATP plus 0.01% dodecyl-maltopyranoside; SDS-PAGE; details: both partners purified

| stoichiometry N (human Hsp90α [1]) | binding result (human Hsp90α [3]) | Binder | stoichiometry N [2] |
| --- | --- | --- | --- |
| 0.5 FKBP52 per Hsp90 chain (1:2) |  | human FKBP52 (52 kDa immunophilin FK506-binding protein) (natural protein, UniProt Q02790 1-459, looked up, FKBP52, human, expressed from pET28b-FKBP52; Dimer in solution by SEC and DLS; The gene is printed as Fkbp4, of the mouse; source: E. coli BL21 (DE3), purified (Ni2+ HisTrap, Q-Sepharose, Sephacryl S-200)) MTAEEMKATESGAQSAPLPMEGVDISPKQDEGVLKVIKREGTGTEMPMIGDRVFVHYTGWLLDGTKFDSSLDRKDKFSFDLGKGEVIKAWDIAIATMKVGEVCHITCKPEYAYGSAGSPPKIPPNATLVFEVELFEFKGEDLTEEEDGGIIRRIQTRGEGYAKPNEGAIVEVALEGYYKDKLFDQRELRFEIGEGENLDLPYGLERAIQRMEKGEHSIVYLKPSYAFGSVGKEKFQIPPNAELKYELHLKSFEKAKESWEMNSEEKLEQSTIVKERGTVYFKEGKYKQALLQYKKIVSWLEYESSFSNEEAQKAQALRLASHLNLAMCHLKLQAFSAAIESCNKALELDSNNEKGLFRRGEAHLAVNDFELARADFQKVLQLYPNNKAAKTQLAVCQQRIRRQLAREKKLYANMFERLAEEENKAKAEASSGDHPTDTEMKEEQKSNTAGSQSQVETEA | 2 |
|  | binds | human p23 co-chaperone (natural protein, UniProt Q15185 1-160, looked up, p23 co-chaperone, human, untagged, expressed from pET23-p23; Eluted from Sephacryl S-200 as dimer and monomer; monomer by DLS; source: E. coli BL21 (DE3), purified (DEAE FF, Q-Sepharose, Sephacryl S-200)) MQPASAKWYDRRDYVFIEFCVEDSKDVNVNFEKSKLTFSCLGGSDNFKHLNEIDLFHCIDPNDSKHKRTDRSILCCLRKGESGQSWPRLTKERAKLNWLSVDFNNWKDWEDDSDEDMSNFDRFSEMMNNMGGDEDVDLPEVDGADDDSQDSDDEKMPDLE |  |

Source: paper PMC3248148, “Hsp90 can Accommodate the Simultaneous Binding of the FKBP52 and HOP Proteins” (Oncotarget, 2011)
